Reference: patent publication US20190153111A1 (Novartis, published 2019)
Values joined by “and” are separate entries in the source; they are usually repeats but may differ in a detail not shown here. Identical values can stand only once.

Key:
Test in all cases: cell-based or functional assay
[1] = target: cynomolgus monkey CD40 on cells (cynomolgus, UniProt G7PG38 21-278)
[2] = target: rhesus monkey CD40 on cells (rhesus, UniProt F6SNI1 21-278)
human CD40 on cells [3] = target: T1, human CD40 on cells (human, UniProt P25942 21-277)
human CD40 on cells [4] = target: T1, human CD40 on cells; remark: listed apart in the source
human CD40 on cells [5] = target: T1, human CD40 on cells; remark: listed apart in the source

T1 sequence (P25942 21-277 limits assumed): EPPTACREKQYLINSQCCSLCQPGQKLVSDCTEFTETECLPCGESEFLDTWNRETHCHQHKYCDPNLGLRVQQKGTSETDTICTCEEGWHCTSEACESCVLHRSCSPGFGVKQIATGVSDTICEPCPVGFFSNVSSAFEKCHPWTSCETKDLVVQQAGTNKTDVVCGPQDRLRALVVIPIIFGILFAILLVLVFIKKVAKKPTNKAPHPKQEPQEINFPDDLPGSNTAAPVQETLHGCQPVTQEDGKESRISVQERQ

Inhibition of rCD154-induced proliferation (IC50 PBMCs), cynomolgus [1]: 0.01 µg/ml and 0.07 µM | Inhibition of rCD154-induced proliferation (IC50 PBMCs), rhesus [2]: 0.026 µg/ml and 0.18 µM | Inhibition of rCD154-induced proliferation (IC50 PBMCs), human (human CD40 on cells [3]): 0.017 µg/ml and 0.12 µM | IC50, inhibition of rCD154-induced TNF production by primary monocyte-derived dendritic cells (human CD40 on cells [4]): 0.04 µg/ml and 0.27 nM | IC50, inhibition of rCD154-induced proliferation of human PBMCs (human CD40 on cells [4]): 0.12 nM | IC50, inhibition of rCD154-induced proliferation of human whole blood cultures (human CD40 on cells [4]): 0.024 µg/ml and 0.16 nM | IC50, inhibition of rCD154-induced proliferation of purified human tonsillar B cells (human CD40 on cells [4]): 0.071 µg/ml and 0.47 nM | IC50 (read off the curve): inhibition of rCD154-induced CD69 expression on CD20pos B cells, human whole blood (human CD40 on cells [5]): ~0.1 µg/mL
B1: CFZ533 (antibody, human IgG1, kappa, N297A)
heavy: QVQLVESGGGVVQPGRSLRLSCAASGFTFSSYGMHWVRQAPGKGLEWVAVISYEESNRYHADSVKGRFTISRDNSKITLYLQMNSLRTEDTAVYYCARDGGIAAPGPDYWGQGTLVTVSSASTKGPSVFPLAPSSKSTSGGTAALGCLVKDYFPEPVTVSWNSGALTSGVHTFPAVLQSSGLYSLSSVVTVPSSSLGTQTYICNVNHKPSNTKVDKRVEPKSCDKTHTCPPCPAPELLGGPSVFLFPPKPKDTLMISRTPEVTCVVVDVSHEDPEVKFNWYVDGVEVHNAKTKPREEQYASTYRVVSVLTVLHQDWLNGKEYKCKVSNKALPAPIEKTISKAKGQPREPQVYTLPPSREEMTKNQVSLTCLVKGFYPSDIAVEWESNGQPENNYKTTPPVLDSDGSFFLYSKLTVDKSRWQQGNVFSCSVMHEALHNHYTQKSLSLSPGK
light: DIVMTQSPLSLTVTPGEPASISCRSSQSLLYSNGYNYLDWYLQKPGQSPQVLISLGSNRASGVPDRFSGSGSGTDFTLKISRVEAEDVGVYYCMQARQTPFTFGPGTKVDIRRTVAAPSVFIFPPSDEQLKSGTASVVCLLNNFYPREAKVQWKVDNALQSGNSQESVTEQDSKDSTYSLSSTLTLSKADYEKHKVYACEVTHQGLSSPVTKSFNRGEC
